Assay [1] concerns hES cells. Kind of assay: FACS analysis of culture composition after differentiation with Noggin, SB431542 or both (NFS). It is filed as cell-based, human. To be noted: for differentiation of hES cells into an alternative fate than the neural lineage: 8 days treatment in N2B27; for proportion of neural cells, in words: 8 days treatment in N2B27, FACS. The source says: A—FACS analyses of the composition of the whole culture after 8 days of differentiation in N2B27 alone or completed with Noggin, SB431542 or both (NFS). B—QPCR quantification of transcript specific of ES cells (Oct4 and Nanog) and early neural precursors (PAX6 and SOX1) for each condition of differentiation.
(§1) Human ES cell cultures or IFS cultures reaching 70-80% confluence were used to perform neural induction using NFS medium. Colonies were cut in pieces and manually detached in N2B27 or NFS medium completed with the Rock-inhibitor Y27632 (10 μM, Calbiochem). Clusters were transferred for 6 h in a low attachment Petri dish in order to completely starve them from the influence of the feeders. Finally, the hES or IFS suspension was plated in the same medium at a 1:1 ratio in culture dishes pre-coated with poly-ornithin and laminin (2 μg/ml, Sigma). The day after and then every other day, the medium was changed for NFS medium without Y27632.
Cells were collected using trypsin and fixed with 2% PFA for 15 min at 4° C. Permeabilization was performed using a PBS/0.1% saponin solution 10 min at RT. The same solution was then used to dilute primary antibodies as followed: mouse monoclonal OCT4 antibody linked to phycoerythrin (oct4-PE, 1:10°, BD Biosciences) and polyclonal rabbit anti-SOX2 antibody (1:500°, Chemicon). Cells were exposed to the mixture of primary antibodies 45 min at RT. An additional incubation with anti-rabbit secondary antibodies linked to AlexaFluo 488 was performed during 30 min at RT in order to detect SOX2 unconjugated antibodies. FACS analysis was performed using a Becton Dickinson FACScalibur™ flow cytometer.
We first monitored the efficiency of neural differentiation obtained only by removing from the culture medium any known instructive signals for alternative cell fates. We used N2B27 medium, a defined medium previously developed to induce neural differentiation of both mouse and human embryonic stem cells in an adherent monolayer culture system (Ying et al., 2003; Lowell et al., 2006). In order to analyzed consistently differentiation of several naïve hES cell lines, we have develop a protocol of systematic counting where cells were stained using antibodies against OCT4 and SOX2 transcription factors and then, analysed using FACS technology. Cells expressing both OCT4 and SOX2 were considered as embryonic stem cells whereas cells expressing only SOX2 were counted as neural cells. Cells totally negative or expressing only OCT4 were designated as differentiated into other type of tissues or layers. FACS analysis was performed on 4 hES cell lines (Hues 24, H9, VUB01, SA01), 8 days after platting on laminin in N2B27. Neural differentiation was obtained with all cell lines, but the efficiency of differentiation appeared highly variable depending of the cell line used, ranging from 33.84% for SA01 line to 82.33% for VUB01 line (FIG. 1-A).
Background: Flow cytometry measures light scatter and fluorescence of single cells or particles in a stream.

Assay [2] concerns hES cells. Kind of assay: Real-time qPCR of lineage marker transcripts after differentiation. It is filed as cell-based, human. To be noted: for expression of early neural markers PAX6 and SOX1: 8 days treatment in N2B27, qPCR; for neural crest cells (PAX3+/SOX10+) and keratinocytes (Cytokeratins 8 and 18), alternative fates from primitive ectoderm: 8 days treatment, qPCR and ICC. As to the method: as §1
Total RNA was isolated using the RNeasy Mini Kit (Qiagen) according to the manufacturer's instructions. A total of 500 ng of RNA were reverse transcribed into cDNA with SuperScript III (Invitrogen) using random primers. Real-time Q-PCR was performed with SYBR Green as a probe on a LC480 Real-Time system (Roche). Quantification was performed at a threshold detection line (Ct value). The Ct of each target gene was normalized against that of the cyclophilin as a housekeeping gene. The 2-ΔΔCt method was used to determine the relative level of expression of each gene. Data were expressed as mean±SEM. Primer sequences are listed in follow.

The mark [3] stands for this setting: 8 days of differentiation, qPCR.

The text below walks through data of patent publication US20180265843A1, “METHOD AND MEDIUM FOR NEURAL DIFFERENTIATION OF PLURIPOTENT CELLS” (INSERM 9INSTITUT NATIONAL DE LA SANTÉ ET DE LA RECHERCHE …, priority 2009, published 2018).

On to `NC(=O)c1ccc(-c2nc(-c3ccc4c(c3)OCO4)c(-c3ccccn3)[nH]2)cc1` [SB431542, 4-(5-Benzol[1,3]dioxol-5-yl-4-pyrlidn-2-yl-1H-imidazol-2-yl)-benzamide hydrate, reference compound], for which, in assay [1], the “differentiation of hES cells into an alternative fate than the neural lineage” value is “drastic differentiation of ES into an alternative fate” and the “proportion of neural cells, in words” value is given as “didn't increase robustly”. Besides, in assay [2] (setting [3]), the “markers of primitive endoderm (SOX17, FOXA1) and primitive mesoderm (Brachyury, FLK1)” value is “not detected”. In addition, in assay [2], the “expression of early neural markers PAX6 and SOX1” value is reported as “didn't increase robustly”; the “neural crest cells (PAX3+/SOX10+) and keratinocytes (Cytokeratins 8 and 18), alternative fates from primitive ectoderm” value was “detected”.

B1: Noggin: natural inhibitor of the BMP pathway; recombinant noggin from R&D Systems or Preprotech (protein, UniProt Q13253 28-232, looked up)
Noggin: QHYLHIRPAPSDNLPLVDLIEHPDPIFDPKEKDLNETLLRSLLGGHYDPGFMATSPPEDRPGGGGGAAGGAEDLAELDQLLRQRPSGAMPSEIKGLEFSEGLAQGKKQRLSKKLRRKLQMWLWSQTFCPVLYAWNDLGSRFWPRYVKVGSCFSKRSCSVPEGMVCKPSKSVHLTVLRWRCQRRGGQRCGWIPIQYPIISECKCSC
On to B1, for which, in assay [1], the “differentiation of hES cells into an alternative fate than the neural lineage” value is “complete blockage” and the “proportion of neural cells, in words” value is listed as “slight increased”. Also, the “ES cells expressing Oct4 and NANOG remaining in the culture” value in assay [1] (after 8 days of treatment) is “a large number of ES cells”. For the same molecule, in assay [2] (setting [3]), the “markers of primitive endoderm (SOX17, FOXA1) and primitive mesoderm (Brachyury, FLK1)” value is “not detected”; the “transcripts of extra-embryonic tissue markers CDX2 and Eomes” value is “not detected”. For the same molecule, in assay [2], the “expression of early neural markers PAX6 and SOX1” value is “slight increased”; the “neural crest cells (PAX3+/SOX10+) and keratinocytes (Cytokeratins 8 and 18), alternative fates from primitive ectoderm” value is given as “not detected”.
